Laboratory results reported in patent US7078382B1, “Modulation of eNOS activity and therapeutic uses thereof” (Genentech, Inc., priority 1999, dated 2006).

What was measured:
[1] = target: KDR receptor (Homo sapiens, UniProt P35968); assay: KDR receptor binding ELISA (inhibition of biotinylated native VEGF (8-109) binding); conditions: second figure of the cell, ratio to native VEGF (8-109)
Procedure: Receptor binding assays were performed in 96-well immunoplates (Maxisorp, Nunc-Immunoplate, Nalge Nunc International, Rochester, N.Y.). Each well was coated with 100 μl of a solution containing 8 μg/ml of a monoclonal antibody to KDR known as MAKD5 (Genentech, South San Francisco, Calif.) in 50 mM carbonate buffer at pH 9.6 and incubated at 4° C. overnight. The supernatant was discarded, the wells were washed three times in washing buffer (0.05% Tween 20 in PBS), and the plate was blocked (150 μl per well) with block buffer (0.5% BSA, 0.01% thimerosal in PBS) at room temperature for one hour. The supernatant was discarded, and the wells were washed.
Aliquots of this mixture (100 μl) were added to the precoated microtiter wells and the plate was incubated for 1 hour at room temperature. […] The wells were then incubated with 3, 3′, 5,5′-tetramethyl benzidine (0.2 gram/liter; Kirkegaard & Perry Laboratories, Gaithersburg, Md.) for about 10 minutes at room temperature. Absorbance was read at 450 nm on a Vmax plate reader (Molecular Devices, Menlo Park, Calif.).
(§1) Titration curves were fit with a four-parameter nonlinear regression curve-fitting program (KaleidaGraph, Synergy Software, Reading, Pa.).

[2] = test system: Flt-1 receptor; assay: Flt-1 receptor binding ELISA (inhibition of biotinylated native VEGF binding to Flt-IgG); conditions: second figure of the cell, ratio to native VEGF (8-109)
Procedure: Receptor binding assays were performed in 96-well immunoplates (Maxisorp, Nunc-Immunoplate, Nalge Nunc International, Rochester, N.Y.). Each well was coated with 100 μl of a solution containing 2 μg/ml of rabbit F(ab′)2 to human IgG Fc (Jackson ImmunoResearch, West Grove, Pa.) in 50 mM carbonate buffer at pH 9.6 and incubated at 4° C. overnight. The supernatant was then discarded, the wells were washed three times in washing buffer (0.05% Tween 20 in PBS), and the plate was blocked (150 μl per well) with block buffer (0.5% BSA, 0.01% thimerosal in PBS) at room temperature for one hour. The supernatant was discarded, and the wells were washed.
The wells were filled with 100 μl of a solution containing Flt-IgG (a chimeric Flt-human Fc molecule) at 50 ng/ml in assay buffer (0.5% BSA, 0.05% Tween 20 in PBS). The wells were incubated at room temperature for 1 hour and then washed three times in wash buffer (0.05% Tween 20 in PBS).
Aliquots of the mixture (100 μl) were added to the precoated microtiter wells and the plate was incubated for 2 hours at room temperature. […] The wells were then incubated with 3, 3′, 5,5′-tetramethyl benzidine (0.2 g/liter, Kirkegaard & Perry Laboratories, Gaithersburg, Md.) for about 10 minutes at room temperature. Absorbance was read at 450 nm on a Vmax plate reader (Molecular Devices, Menlo Park, Calif.).
as §1

KDR receptor, sequence (P35968 20-327 limits assumed): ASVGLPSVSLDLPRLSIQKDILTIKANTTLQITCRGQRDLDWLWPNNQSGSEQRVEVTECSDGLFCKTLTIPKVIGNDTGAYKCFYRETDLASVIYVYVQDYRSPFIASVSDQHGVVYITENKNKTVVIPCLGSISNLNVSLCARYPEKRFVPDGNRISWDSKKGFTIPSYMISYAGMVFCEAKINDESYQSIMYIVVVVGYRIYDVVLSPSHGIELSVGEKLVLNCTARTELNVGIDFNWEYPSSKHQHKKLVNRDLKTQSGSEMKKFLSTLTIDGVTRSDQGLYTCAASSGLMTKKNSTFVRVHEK
Flt-1 receptor, sequence (P17948 27-327 limits assumed): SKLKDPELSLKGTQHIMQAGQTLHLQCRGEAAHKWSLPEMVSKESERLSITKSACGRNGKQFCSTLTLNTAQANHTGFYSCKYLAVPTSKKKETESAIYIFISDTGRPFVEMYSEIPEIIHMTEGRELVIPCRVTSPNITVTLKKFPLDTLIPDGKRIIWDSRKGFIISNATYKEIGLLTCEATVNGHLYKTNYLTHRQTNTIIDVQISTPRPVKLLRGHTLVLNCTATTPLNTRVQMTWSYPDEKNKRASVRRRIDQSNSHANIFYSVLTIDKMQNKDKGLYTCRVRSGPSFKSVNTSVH

B1: LK-VRB-4s: VEGF (1-109) variant, F17I/M18E/Y21F/Q22E/Y25I (protein)
chain: APMAEGGGQNHHEVVKIEDVFERSICHPIETLVDIFQEYPDEIEYIFKPSCVPLMRCGGCCNDEGLECVPTEESNITMQIMRIKPHQGQHIGEMSFLQHNKCECRPKKD
- Relative Binding Affinity KDR Receptor [1]: 1 nM/1

B2: LK-VRB-13s: VEGF (1-109) variant, M18E/Y25S/D63S/G65M/L66R (protein)
chain: APMAEGGGQNHHEVVKFEDVYQRSSCHPIETLVDIFQEYPDEIEYIFKPSCVPLMRCGGCCNSEMRECVPTEESNITMQIMRIKPHQGQHIGEMSFLQHNKCECRPKKD
- Relative Binding Affinity KDR Receptor [1]: 14 nM/14
- Relative Binding Affinity FLT-1 Receptor [2]: />14000

B3: LK-VRB-20s: VEGF (1-109) variant, Y21L/Q22R/Y25S/D63S/G65M/L66R (protein)
chain: APMAEGGGQNHHEVVKFMDVLRRSSCHPIETLVDIFQEYPDEIEYIFKPSCVPLMRCGGCCNSEMRECVPTEESNITMQIMRIKPHQGQHIGEMSFLQHNKCECRPKKD
- Relative Binding Affinity KDR Receptor [1]: 2 nM/2
- Relative Binding Affinity FLT-1 Receptor [2]: />10000

B4: LK-VRB-17s: VEGF (1-109) variant, M18E/Y21L/Q22R/D63S/G65M/L66R (protein)
chain: APMAEGGGQNHHEVVKFEDVLRRSYCHPIETLVDIFQEYPDEIEYIFKPSCVPLMRCGGCCNSEMRECVPTEESNITMQIMRIKPHQGQHIGEMSFLQHNKCECRPKKD
- Relative Binding Affinity KDR Receptor [1]: 3 nM/3
- Relative Binding Affinity FLT-1 Receptor [2]: />1900

B5: LK-VRB-21s: VEGF (1-109) variant, D63S/M18E/Y21L/Q22R/Y25S (protein)
chain: APMAEGGGQNHHEVVKFEDVLRRSSCHPIETLVDIFQEYPDEIEYIFKPSCVPLMRCGGCCNSEGLECVPTEESNITMQIMRIKPHQGQHIGEMSFLQHNKCECRPKKD
- Relative Binding Affinity KDR Receptor [1]: 3 nM/3
- Relative Binding Affinity FLT-1 Receptor [2]: />5600

B6: LK-VRB-23s: VEGF (1-109) variant, L66R/M185/Y21L/Q22R/Y25S as printed (protein)
chain: APMAEGGGQNHHEVVKFEDVLRRSSCHPIETLVDIFQEYPDEIEYIFKPSCVPLMRCGGCCNDEGRECVPTEESNITMQIMRIKPHQGQHIGEMSFLQHNKCECRPKKD
- Relative Binding Affinity KDR Receptor [1]: 11 nM/11
- Relative Binding Affinity FLT-1 Receptor [2]: />8500

B7: LK-VRB-11s: VEGF (1-109) variant, M18E/Y21L/D63S/G65M/L66R (protein)
chain: APMAEGGGQNHHEVVKFEDVLQRSYCHPIETLVDIFQEYPDEIEYIFKPSCVPLMRCGGCCNSEMRECVPTEESNITMQIMRIKPHQGQHIGEMSFLQHNKCECRPKKD
- Relative Binding Affinity KDR Receptor [1]: 2 nM/2
- Relative Binding Affinity FLT-1 Receptor [2]: />14000

B8: LK-VRB-12s: VEGF (1-109) variant, M18E/Q22R/D63S/G65M/L66R (protein)
chain: APMAEGGGQNHHEVVKFEDVYRRSYCHPIETLVDIFQEYPDEIEYIFKPSCVPLMRCGGCCNSEMRECVPTEESNITMQIMRIKPHQGQHIGEMSFLQHNKCECRPKKD
- Relative Binding Affinity KDR Receptor [1]: 0.4 nM/0.4
- Relative Binding Affinity FLT-1 Receptor [2]: />5600

B9: LK-VRB-15s: VEGF (1-109) variant, Y21L/Y25S/D63S/G65M/L66R (protein)
chain: APMAEGGGQNHHEVVKFMDVLQRSSCHPIETLVDIFQEYPDEIEYIFKPSCVPLMRCGGCCNSEMRECVPTEESNITMQIMRIKPHQGQHIGEMSFLQHNKCECRPKKD
- Relative Binding Affinity KDR Receptor [1]: 2 nM/2
- Relative Binding Affinity FLT-1 Receptor [2]: />21000

B10: LK-VRB-3s: VEGF (1-109) variant, F17I/M18E/Y21F/Q22K/Y25S (protein)
chain: APMAEGGGQNHHEVVKIEDVFKRSSCHPIETLVDIFQEYPDEIEYIFKPSCVPLMRCGGCCNDEGLECVPTEESNITMQIMRIKPHQGQHIGEMSFLQHNKCECRPKKD
- Relative Binding Affinity KDR Receptor [1]: 1 nM/1

B11: LK-VRB-14s: VEGF (1-109) variant, Y21L/Q22R/D63S/G65M/L66R (protein)
chain: APMAEGGGQNHHEVVKFMDVLRRSYCHPIETLVDIFQEYPDEIEYIFKPSCVPLMRCGGCCNSEMRECVPTEESNITMQIMRIKPHQGQHIGEMSFLQHNKCECRPKKD
- Relative Binding Affinity KDR Receptor [1]: 0.5 nM/0.5
- Relative Binding Affinity FLT-1 Receptor [2]: />2900

B12: LK-VRB-22s: VEGF (1-109) variant, GG5M/M18E/Y21L/Q22R/Y25S as printed (protein)
chain: APMAEGGGQNHHEVVKFEDVLRRSSCHPIETLVDIFQEYPDEIEYIFKPSCVPLMRCGGCCNDEMLECVPTEESNITMQIMRIKPHQGQHIGEMSFLQHNKCECRPKKD
- Relative Binding Affinity KDR Receptor [1]: 4 nM/4
- Relative Binding Affinity FLT-1 Receptor [2]: />30

B13: LK-VRB-7s*: VEGF (1-109) variant, M18E/D63S/G65M/L66R (protein)
chain: APMAEGGGQNHHEVVKFEDVYQRSYCHPIETLVDIFQEYPDEIEYIFKPSCVPLMRCGGCCNSEMRECVPTEESNITMQIMRIKPHQGQHIGEMSFLQHNKCECRPKKD
- Relative Binding Affinity KDR Receptor [1]: 1 nM/1
- Relative Binding Affinity FLT-1 Receptor [2]: />15000

B14: LK-VRB-9s: VEGF (1-109) variant, Q22R/D63S/G65M/L66R (protein)
chain: APMAEGGGQNHHEVVKFMDVYRRSYCHPIETLVDIFQEYPDEIEYIFKPSCVPLMRCGGCCNSEMRECVPTEESNITMQIMRIKPHQGQHIGEMSFLQHNKCECRPKKD
- Relative Binding Affinity KDR Receptor [1]: 0.5 nM/0.5
- Relative Binding Affinity FLT-1 Receptor [2]: /300

B15: LK-VRB-8s*: VEGF (1-109) variant, Y2IL/D63S/G65M/LG6R as printed (protein)
chain: APMAEGGGQNHHEVVKFMDVLQRSYCHPIETLVDIFQEYPDEIEYIFKPSCVPLMRCGGCCNSEMRECVPTEESNITMQIMRIKPHQGQHIGEMSFLQHNKCECRPKKD
- Relative Binding Affinity KDR Receptor [1]: 0.5 nM/0.5
- Relative Binding Affinity FLT-1 Receptor [2]: />21000

B16: LK-VRB-16s: VEGF (1-109) variant, Q22R/Y25S/D63S/G65M/L66R (protein)
chain: APMAEGGGQNHHEVVKFMDVYRRSSCHPIETLVDIFQEYPDEIEYIFKPSCVPLMRCGGCCNSEMRECVPTEESNITMQIMRIKPHQGQHIGEMSFLQHNKCECRPKKD
- Relative Binding Affinity KDR Receptor [1]: 0.6 nM/0.6
- Relative Binding Affinity FLT-1 Receptor [2]: />1400

B17: LK-VRB-10s: VEGF (1-109) variant, Y25S/D63S/G65M/L66R (protein)
chain: APMAEGGGQNHHEVVKFMDVYQRSSCHPIETLVDIFQEYPDEIEYIFKPSCVPLMRCGGCCNSEMRECVPTEESNITMQIMRIKPHQGQHIGEMSFLQHNKCECRPKKD
- Relative Binding Affinity KDR Receptor [1]: 0.5 nM/0.5
- Relative Binding Affinity FLT-1 Receptor [2]: />2400

B18: LK-VRB-19s: VEGF (1-109) variant, M18E/Q22R/Y25S/D63S/G65M/L66R as printed (same as 18s) (protein)
chain: APMAEGGGQNHHEVVKFEDVYRRSSCHPIETLVDIFQEYPDEIEYIFKPSCVPLMRCGGCCNSEMRECVPTEESNITMQIMRIKPHQGQHIGEMSFLQHNKCECRPKKD
- Relative Binding Affinity KDR Receptor [1]: 7 nM/7
- Relative Binding Affinity FLT-1 Receptor [2]: />35000
